Reference: PMC8447495, “Dissecting Monomer-Dimer Equilibrium of an RNase P Protein Provides Insight Into the Synergistic Flexibility of 5’ Leader Pre-tRNA Recognition” (Frontiers in Molecular Biosciences, 2021)

Molecular target: the molecule itself
Assay: NMR (preliminary experiments); highly purified P protein at 25°C

B1: Thermotoga maritima RNase P protein (natural protein)
chain: TESFTRRERLRLRRDFLLIFKEGKSLQNEYFVVLFRKNGLDYSRLGIVVKRKFGKATRRNKLKRWVREIFRRNKGVIPKGFDIVVIPRKKLSEEFERVDFWTVREKLLNLLKRIEG
modifications: 15N, 13C-labeled
notes: RNase P protein component (rnpA gene) of Thermotoga maritima; numbering corresponds to UniProtKB Q9X1H4; Exists as monomer and dimer in equilibrium in solution; the preparation follows Zeng et al., 2018; also called T. maritima RNase P protein; source: E. coli BL21 Gold, M9 minimal media, purified (thrombin-treated lysate, denaturation-renaturation, 15S cation exchange); not shown: GST, …
stoichiometry N: 2
